Values quoted from earlier work as cited in article PMC3518592.

Target: ubiquitin (UniProt P0CG48)

Chain of Vps9 CUE (P54787 405-451): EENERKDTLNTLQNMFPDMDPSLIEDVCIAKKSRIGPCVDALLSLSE

Kd: 20 µM
Substance: Vps9 CUE (from UniProt P54787)
